Assay results taken from paper PMC11519345, “Structural variation of types IV-A1- and IV-A3-mediated CRISPR interference”.

Biological target: Type IV-A1 effector complex (Cas5-Cas8-Cas7-Cas6 crRNP), DinG-free;DinG (CasDinG, Csf4) type IV-A1 (Pseudomonas oleovorans;Pseudomonas …, UniProt A0A379PL53;A0A379PIR4;A0A379PIR9;A0A379PNK2;A0A379PL92 …, |)
Assay: cryo-EM; crRNA; DinG bound; PDB code not assigned in the material; EMSA: 10 mM HEPES pH 7.5, 150 mM NaCl, 1 nM DNA, on ice then 20 min RT, 6% native PAGE in TBE at 4 C; cryo-EM: 10 uM complex + 15 uM DNA in the same buffer, 10
Conditions: protein: recombinant;recombinant; tags: His6 C-terminal on Cas8;; copies: 1;1;5;1;1; bubble: non-complementary protospacer, paired 15 nt and 14+ nt ends

B1: Type IV-A1 bubbled target DNA (TS/NTS) for cryo-EM (dsDNA)
DNA 1: CGGTCGGGTCATACGTCGCGTCTCGAATCTGATGCGTAACTTGGATGCTTCGTGCGTGATG
DNA 2: CATCACGCACGAAGACCAAGTCAATGCTTAGTCTAATACCTGCGCTCGTATGACCCGACCG
binding result: binds
